# Source: patent US20220363754A1 (SHANGHAI JUNSHI BIOSCIENCES, published 2022)
# Where two headings read alike, the source gives them in different places.
# T1: recombinant protein hTIGIT-ECD-mFC (human; mouse, UniProt Q495A1 24-155)
# T1 construct: range 24-155; Expressed in 293E cells; also called human TIGIT-ECD-mFc; not shown: murine IgG2a Fc domain of the vector MX2-mFc
# T1 sequence (looked up): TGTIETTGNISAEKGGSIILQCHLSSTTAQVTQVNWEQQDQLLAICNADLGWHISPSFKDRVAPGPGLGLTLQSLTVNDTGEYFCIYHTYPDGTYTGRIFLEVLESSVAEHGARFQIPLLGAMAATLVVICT
# B1: etigilimab (antibody, V domains shown)
# VH: QVQLQESGPGLVKPSETLSLTCAVSGYSITSDYAWNWIRQPPGKGLEWIGYISYSGSTSYNPSLRSRVTISRDTSKNQFFLKLSSVTAADTAVYYCARRQVGLGFAYWGQGTLVTVSS
# VL: DIQMTQSPSSLSASVGDRVTITCKASQDVSTAVAWYQQKPGKAPKLLIYSASYRYTGVPSRFSGSGSGTDFTFTISSLQPEDIATYYCQQHYSTPWTFGQGTKVEIK
# Key:
# Test in all cases: ELISA, 0.5 ug/mL human TIGIT-ECD-mFc coated on the plate, detection with anti-IgG4-HRP, OD 450 nm; unit taken from the axis Log:ng/mL
# [1] = biological target: T1, recombinant protein hTIGIT-ECD-mFC
# [2] = biological target: T1, recombinant protein hTIGIT-ECD-mFC; remark: listed apart in the source
# [3] = biological target: T1, recombinant protein hTIGIT-ECD-mFC; remark: listed apart in the source
# [4] = biological target: T1, recombinant protein hTIGIT-ECD-mFC; remark: listed apart in the source
binder,measurement,setting,value
B1,EC50,[1],0.0194 µg/mL
same,EC50,[2],0.0275 µg/mL
same,EC50,[3],0.0362 µg/mL
same,EC50,[4],0.0262 µg/mL
